Measurements: article PMC10681739, “High-throughput data and modeling reveal insights into the mechanisms of cooperative DNA-binding by transcription factor proteins”

target: RUNX1 (Homo sapiens, UniProt Q01196); experiment: gcPBM; 2 nM RUNX1; settings: tags: N-terminal GST (pDEST15), kept (PMC6008103); label: surface-attached array probe
Sequence (Q01196 whole entry): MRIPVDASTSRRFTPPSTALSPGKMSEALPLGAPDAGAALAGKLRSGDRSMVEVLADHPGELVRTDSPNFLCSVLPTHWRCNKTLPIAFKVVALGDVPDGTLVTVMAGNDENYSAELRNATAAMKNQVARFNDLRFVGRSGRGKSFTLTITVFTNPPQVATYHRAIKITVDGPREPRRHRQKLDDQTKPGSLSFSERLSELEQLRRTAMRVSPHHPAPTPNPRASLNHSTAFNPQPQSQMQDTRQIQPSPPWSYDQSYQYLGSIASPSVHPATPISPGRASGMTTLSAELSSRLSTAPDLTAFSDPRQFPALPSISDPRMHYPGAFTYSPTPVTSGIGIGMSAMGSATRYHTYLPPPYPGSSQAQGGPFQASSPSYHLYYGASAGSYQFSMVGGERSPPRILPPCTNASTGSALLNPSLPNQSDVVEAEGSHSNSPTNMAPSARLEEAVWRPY

Row | Binder | binding signal
1 | Table S3 C row 87 (dsDNA) DNA 1: AGAGGAGGGGCCCGGCGGAAACTGCCGAGGTCTCCC DNA 2: GGGAGACCTCGGCAGTTTCCGCCGGGCCCCTCCTCT | 733 PBM fluorescence, median of replicate spots
2 | Table S3 C row 107 (dsDNA) DNA 1: CTCGAGCCCGCTCGGCTTCCGTAGCCCCGCCCCATC DNA 2: GATGGGGCGGGGCTACGGAAGCCGAGCGGGCTCGAG | 743 PBM fluorescence, median of replicate spots
3 | Table S3 C row 98 (dsDNA) DNA 1: TCGGCGGGGCTGTACCGGAAGTTGCCTCTACTTCTG DNA 2: CAGAAGTAGAGGCAACTTCCGGTACAGCCCCGCCGA | 759 PBM fluorescence, median of replicate spots
4 | Table S3 C row 9 (dsDNA) DNA 1: CGTGACGCAGGGAAAGTTCCGGCTTCGGCCTCCGCC DNA 2: GGCGGAGGCCGAAGCCGGAACTTTCCCTGCGTCACG | 736 PBM fluorescence, median of replicate spots
5 | Table S3 C row 161 (dsDNA) DNA 1: CTATCCCAGGCCTCGCTTCCGGTGACATCATGTCTC DNA 2: GAGACATGATGTCACCGGAAGCGAGGCCTGGGATAG | 749 PBM fluorescence, median of replicate spots
6 | Table S3 C row 176 (dsDNA) DNA 1: GCCGCCATGGGGCGCTATCCGGCCCCAGCCGGGACC DNA 2: GGTCCCGGCTGGGGCCGGATAGCGCCCCATGGCGGC | 729 PBM fluorescence, median of replicate spots
7 | Table S3 C row 54 (dsDNA) DNA 1: CAGACCCCGTGGGGCAGGAAGCTGCTGGGGTAGGCC DNA 2: GGCCTACCCCAGCAGCTTCCTGCCCCACGGGGTCTG | 758 PBM fluorescence, median of replicate spots
8 | Table S3 C row 127 (dsDNA) DNA 1: CTCCGAACTTAGGACAGGAAGAAACAGGCACATTTC DNA 2: GAAATGTGCCTGTTTCTTCCTGTCCTAAGTTCGGAG | 751 PBM fluorescence, median of replicate spots
9 | Table S3 C row 25 (dsDNA) DNA 1: CTCCAGGGGTGTCACCGGAAAAAGCCGTTTCTGGAG DNA 2: CTCCAGAAACGGCTTTTTCCGGTGACACCCCTGGAG | 765 PBM fluorescence, median of replicate spots
10 | Table S3 C row 77 (dsDNA) DNA 1: TCGGGCCGGGAGCCGGTTCCGGCTGAGTCGGCAGGG DNA 2: CCCTGCCGACTCAGCCGGAACCGGCTCCCGGCCCGA | 765 PBM fluorescence, median of replicate spots
11 | Table S3 C row 144 (dsDNA) DNA 1: GTTTAAGCTCAGCGCCTTCCTGGTTCTAGCGCCAGG DNA 2: CCTGGCGCTAGAACCAGGAAGGCGCTGAGCTTAAAC | 729 PBM fluorescence, median of replicate spots
12 | Table S3 C row 15 (dsDNA) DNA 1: CAGCCAGCCCTCGCACGGAAGCGAACTTGCTGTCAC DNA 2: GTGACAGCAAGTTCGCTTCCGTGCGAGGGCTGGCTG | 769 PBM fluorescence, median of replicate spots
13 | Table S3 C row 69 (dsDNA) DNA 1: TCCCCGAGCGTGCAGCTTCCGGTGAGGGCAGCCCCA DNA 2: TGGGGCTGCCCTCACCGGAAGCTGCACGCTCGGGGA | 735 PBM fluorescence, median of replicate spots
14 | Table S3 C row 23 (dsDNA) DNA 1: CCCAGCCGGCCTGGACATCCGCCCCGCGCGCGGCGT DNA 2: ACGCCGCGCGCGGGGCGGATGTCCAGGCCGGCTGGG | 759 PBM fluorescence, median of replicate spots
15 | Table S3 C row 122 (dsDNA) DNA 1: ACCCTGAAGCCTCGCCGGAACTCGCGTCTGGGGCCA DNA 2: TGGCCCCAGACGCGAGTTCCGGCGAGGCTTCAGGGT | 728 PBM fluorescence, median of replicate spots
16 | Table S3 C row 50 (dsDNA) DNA 1: GCGTGACAGAATGTGCTTCCGCTTGCGCCTCTGAGC DNA 2: GCTCAGAGGCGCAAGCGGAAGCACATTCTGTCACGC | 755 PBM fluorescence, median of replicate spots
17 | Table S3 C row 36 (dsDNA) DNA 1: GGACGGCCTCTGAAGCTTCCGCGCCGACTTCTCCGA DNA 2: TCGGAGAAGTCGGCGCGGAAGCTTCAGAGGCCGTCC | 741 PBM fluorescence, median of replicate spots
18 | Table S3 C row 154 (dsDNA) DNA 1: CCGGCTCATCTGGTATTTCCTGAGCACCTGCGACGT DNA 2: ACGTCGCAGGTGCTCAGGAAATACCAGATGAGCCGG | 757 PBM fluorescence, median of replicate spots
19 | Table S3 C row 174 (dsDNA) DNA 1: TTGCTCTGCGCATGGCGGAAAGGGTGCGCCGCCTGT DNA 2: ACAGGCGGCGCACCCTTTCCGCCATGCGCAGAGCAA | 735 PBM fluorescence, median of replicate spots
20 | Table S3 C row 52 (dsDNA) DNA 1: TTTCGCCGACCCCGCCGGAAGACCAGGCCGGCGCGG DNA 2: CCGCGCCGGCCTGGTCTTCCGGCGGGGTCGGCGAAA | 732 PBM fluorescence, median of replicate spots
21 | Table S3 C row 22 (dsDNA) DNA 1: CCGGATTGCCTTCACAGGAAGGGAAAGTCACTCCGG DNA 2: CCGGAGTGACTTTCCCTTCCTGTGAAGGCAATCCGG | 737 PBM fluorescence, median of replicate spots
22 | Table S3 C row 150 (dsDNA) DNA 1: TCTGAACTCTGACAACTTCCTGTCGCTCTGAGTGTG DNA 2: CACACTCAGAGCGACAGGAAGTTGTCAGAGTTCAGA | 757 PBM fluorescence, median of replicate spots
23 | Table S3 C row 192 (dsDNA) DNA 1: CCGCGCAAGCCCCGACATCCGGTTGGCCGGCGTGGG DNA 2: CCCACGCCGGCCAACCGGATGTCGGGGCTTGCGCGG | 751 PBM fluorescence, median of replicate spots

Row | Binder | binding signal
24 | Table S3 C row 82 (dsDNA) DNA 1: TGATGGGGATCGGTCCGGATGTACTTCAACATCTTT DNA 2: AAAGATGTTGAAGTACATCCGGACCGATCCCCATCA | 747 PBM fluorescence, median of replicate spots
25 | Table S3 C row 57 (dsDNA) DNA 1: TTCATTGTTAGGGAACATCCGGGCCTGTCCCCTCCC DNA 2: GGGAGGGGACAGGCCCGGATGTTCCCTAACAATGAA | 752 PBM fluorescence, median of replicate spots
26 | Table S3 C row 53 (dsDNA) DNA 1: GCTGGGACGCCAGACCTTCCGGGTTGCCCGGCCCCG DNA 2: CGGGGCCGGGCAACCCGGAAGGTCTGGCGTCCCAGC | 748 PBM fluorescence, median of replicate spots
27 | Table S3 C row 49 (dsDNA) DNA 1: TGGGACTGACTGAGTCTTCCGTGTGTCGCCGCCGTT DNA 2: AACGGCGGCGACACACGGAAGACTCAGTCAGTCCCA | 756 PBM fluorescence, median of replicate spots
28 | Table S3 C row 153 (dsDNA) DNA 1: CCGCCTTCAGGGCGGCGGAAGTCGCTGGCTGCTCTT DNA 2: AAGAGCAGCCAGCGACTTCCGCCGCCCTGAAGGCGG | 759 PBM fluorescence, median of replicate spots
29 | Table S3 C row 108 (dsDNA) DNA 1: TCTGCCCTCCCAGCACTTCCGGGCTGGCAGAAGAGC DNA 2: GCTCTTCTGCCAGCCCGGAAGTGCTGGGAGGGCAGA | 763 PBM fluorescence, median of replicate spots
30 | Table S3 C row 200 (dsDNA) DNA 1: GCCCCTCACAGCCTGCTTCCGGGAGCCGGGCAGGCC DNA 2: GGCCTGCCCGGCTCCCGGAAGCAGGCTGTGAGGGGC | 726 PBM fluorescence, median of replicate spots
31 | Table S3 C row 160 (dsDNA) DNA 1: ACCCCGTAGCCGGCGCTTCCTGCCGAGGCTGGGGTC DNA 2: GACCCCAGCCTCGGCAGGAAGCGCCGGCTACGGGGT | 766 PBM fluorescence, median of replicate spots
32 | Table S3 C row 164 (dsDNA) DNA 1: GGGCTGGGTGGAGACAGGAAGCTTCAGAGCCACTCC DNA 2: GGAGTGGCTCTGAAGCTTCCTGTCTCCACCCAGCCC | 735 PBM fluorescence, median of replicate spots
33 | Table S3 C row 41 (dsDNA) DNA 1: CAGACTCGGCGTCGGCTTCCGGCGGCGTCAGAGACG DNA 2: CGTCTCTGACGCCGCCGGAAGCCGACGCCGAGTCTG | 762 PBM fluorescence, median of replicate spots
34 | Table S3 C row 75 (dsDNA) DNA 1: GGAGCTCACCTTCCAGTTCCGGGAGGCAGGCCGGCC DNA 2: GGCCGGCCTGCCTCCCGGAACTGGAAGGTGAGCTCC | 740 PBM fluorescence, median of replicate spots
35 | Table S3 C row 179 (dsDNA) DNA 1: CACAAGCGAAACATTCGGAAGCAATTTACTTGCAGC DNA 2: GCTGCAAGTAAATTGCTTCCGAATGTTTCGCTTGTG | 751 PBM fluorescence, median of replicate spots
36 | Table S3 C row 110 (dsDNA) DNA 1: AGCTTATCATCGTCACGGAAGCCCCGCCAGGTGGCG DNA 2: CGCCACCTGGCGGGGCTTCCGTGACGATGATAAGCT | 759 PBM fluorescence, median of replicate spots
37 | Table S3 C row 93 (dsDNA) DNA 1: TCCTTCCCTGGCAACAGGAAGTGAAAATGCCAGGCC DNA 2: GGCCTGGCATTTTCACTTCCTGTTGCCAGGGAAGGA | 766 PBM fluorescence, median of replicate spots
38 | Table S3 C row 24 (dsDNA) DNA 1: CCCACGCTCTGCGTGCTTCCGGCGAGCAAAGCCCCG DNA 2: CGGGGCTTTGCTCGCCGGAAGCACGCAGAGCGTGGG | 766 PBM fluorescence, median of replicate spots
39 | Table S3 C row 89 (dsDNA) DNA 1: AGCACAGCTTCGGGCCGGAATCACGATCCACCAGAC DNA 2: GTCTGGTGGATCGTGATTCCGGCCCGAAGCTGTGCT | 755 PBM fluorescence, median of replicate spots
40 | Table S3 C row 170 (dsDNA) DNA 1: ACCGGCGCGCACACGCTTCCGTGCTACGAGGCACTT DNA 2: AAGTGCCTCGTAGCACGGAAGCGTGTGCGCGCCGGT | 726 PBM fluorescence, median of replicate spots
41 | Table S3 C row 138 (dsDNA) DNA 1: GGGGCCTGTTGTAGTTTTCCTGCATTCAAAGTACCC DNA 2: GGGTACTTTGAATGCAGGAAAACTACAACAGGCCCC | 732 PBM fluorescence, median of replicate spots
42 | Table S3 C row 72 (dsDNA) DNA 1: CCCCGTCCACGGCCCCGGAAGCTGACGTCGCCGAAG DNA 2: CTTCGGCGACGTCAGCTTCCGGGGCCGTGGACGGGG | 733 PBM fluorescence, median of replicate spots
43 | Table S3 C row 178 (dsDNA) DNA 1: TGGCTGCTACGTCGTCTTCCTGGGCGAAAGTGCCTG DNA 2: CAGGCACTTTCGCCCAGGAAGACGACGTAGCAGCCA | 726 PBM fluorescence, median of replicate spots
44 | Table S3 C row 193 (dsDNA) DNA 1: CCGACCCCGCTGCCCCGGAAGGTGAGGCAAGCCTGG DNA 2: CCAGGCTTGCCTCACCTTCCGGGGCAGCGGGGTCGG | 761 PBM fluorescence, median of replicate spots
45 | Table S3 C row 124 (dsDNA) DNA 1: ACTTGGGGCATGCAATTTCCGGCAGCACAGAAAACA DNA 2: TGTTTTCTGTGCTGCCGGAAATTGCATGCCCCAAGT | 766 PBM fluorescence, median of replicate spots
